# Laboratory results as given in patent US20050118601A1, “Enhancer sequence of the 5-aminolevulinic acid synthase gene” (priority 2002, published 2005).
# T1: human 9-cis retinoic acid receptor RXRα (human, UniProt P19793 1-462)
# T1 construct: also called human RXRα
# T1 sequence (looked up): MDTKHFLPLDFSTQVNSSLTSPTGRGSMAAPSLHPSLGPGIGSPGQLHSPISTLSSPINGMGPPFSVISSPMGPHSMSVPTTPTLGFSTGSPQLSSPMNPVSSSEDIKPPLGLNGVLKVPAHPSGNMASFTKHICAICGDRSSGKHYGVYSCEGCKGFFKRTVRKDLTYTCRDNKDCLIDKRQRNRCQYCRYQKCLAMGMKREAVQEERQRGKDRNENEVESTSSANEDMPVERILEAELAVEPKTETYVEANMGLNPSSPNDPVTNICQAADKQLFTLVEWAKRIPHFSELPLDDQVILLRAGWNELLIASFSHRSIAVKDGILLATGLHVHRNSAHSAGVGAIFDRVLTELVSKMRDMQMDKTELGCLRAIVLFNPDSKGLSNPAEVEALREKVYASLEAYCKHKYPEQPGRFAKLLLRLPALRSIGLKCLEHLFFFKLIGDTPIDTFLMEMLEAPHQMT
# T2: PXR (Homo sapiens, UniProt O75469 O75469:1-434)
# T2 sequence: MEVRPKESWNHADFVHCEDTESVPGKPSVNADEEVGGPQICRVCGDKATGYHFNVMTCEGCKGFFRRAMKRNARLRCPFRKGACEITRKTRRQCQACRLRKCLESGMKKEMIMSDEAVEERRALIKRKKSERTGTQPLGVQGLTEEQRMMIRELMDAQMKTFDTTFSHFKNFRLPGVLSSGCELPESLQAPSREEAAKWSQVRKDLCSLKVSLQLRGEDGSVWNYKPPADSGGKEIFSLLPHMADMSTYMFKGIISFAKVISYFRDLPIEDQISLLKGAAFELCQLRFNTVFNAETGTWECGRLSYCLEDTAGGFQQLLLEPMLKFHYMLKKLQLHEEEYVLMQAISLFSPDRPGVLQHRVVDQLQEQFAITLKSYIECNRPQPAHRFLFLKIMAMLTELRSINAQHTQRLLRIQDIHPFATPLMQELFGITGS
# T3: CAR (Homo sapiens, UniProt Q14994 Q14994:1-352)
# T3 sequence: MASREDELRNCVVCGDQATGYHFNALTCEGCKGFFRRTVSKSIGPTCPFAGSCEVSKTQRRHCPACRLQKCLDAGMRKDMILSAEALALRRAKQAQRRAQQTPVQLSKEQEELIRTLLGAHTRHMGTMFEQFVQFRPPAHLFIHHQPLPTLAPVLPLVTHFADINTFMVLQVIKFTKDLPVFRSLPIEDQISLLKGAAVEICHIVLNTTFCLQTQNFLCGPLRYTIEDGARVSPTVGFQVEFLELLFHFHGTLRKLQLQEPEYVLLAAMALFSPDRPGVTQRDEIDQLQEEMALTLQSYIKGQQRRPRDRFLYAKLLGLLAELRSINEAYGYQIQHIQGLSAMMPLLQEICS
# T4: RXR (Gallus gallus, UniProt P28701 P28701:1-467)
# T4 sequence: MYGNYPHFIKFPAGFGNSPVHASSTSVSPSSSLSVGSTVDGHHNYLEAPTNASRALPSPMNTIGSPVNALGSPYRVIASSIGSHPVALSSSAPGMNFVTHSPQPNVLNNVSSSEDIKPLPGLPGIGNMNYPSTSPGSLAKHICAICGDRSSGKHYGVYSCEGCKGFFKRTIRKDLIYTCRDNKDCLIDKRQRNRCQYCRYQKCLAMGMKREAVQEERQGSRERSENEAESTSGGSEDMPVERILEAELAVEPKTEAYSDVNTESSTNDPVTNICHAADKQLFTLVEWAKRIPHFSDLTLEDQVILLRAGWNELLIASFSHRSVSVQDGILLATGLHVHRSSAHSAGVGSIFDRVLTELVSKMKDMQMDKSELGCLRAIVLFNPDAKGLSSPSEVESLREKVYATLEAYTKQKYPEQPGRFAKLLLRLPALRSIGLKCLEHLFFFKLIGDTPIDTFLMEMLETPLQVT
# B1: 176 bp ADRES DR4-1/DR5 double mutant (dsDNA)
# DNA 1: GGGCTCCATCGGCCTCTTCAGGTTATTGCTATGTTGGTATCGTGTCGAGTTCCTCCCTGTTTTCAAGGTTCTGATAACAAACTTCTAGGACAGCCTGGCTGCAGTTGGCGAATTCTCCTCTTTAAACTCCGGTGGCTTTTGCTTCATTGCCTAGTTGTTACCCAGCAGTAAAGATC
# DNA 2: GATCTTTACTGCTGGGTAACAACTAGGCAATGAAGCAAAAGCCACCGGAGTTTAAAGAGGAGAATTCGCCAACTGCAGCCAGGCTGTCCTAGAAGTTTGTTATCAGAACCTTGAAAACAGGGAGGAACTCGACACGATACCAACATAGCAATAACCTGAAGAGGCCGATGGAGCCC
# B2: human pregnane X receptor (PXR) (receptor, UniProt O75469 1-434, looked up)
# chain: T2 sequence
# notes: also called human PXR; hPXR
# B3: hA174 (dsDNA)
# DNA 1: GCGCAAAGTCAACACAAGCCTCTCCACCGTGTGTCCATGTTTATGTGTATGCGCTGTGCCCCGTCATGCCACCTGGACGCAGGGACTCCAGTGACCTCTCCTTGCACAAGCCTCTGCTGGTTTGGGAAAGATTGGCATGACATCAGCCAAGCTCTGGCCTTGCCTTTTTTCCCT
# DNA 2: AGGGAAAAAAGGCAAGGCCAGAGCTTGGCTGATGTCATGCCAATCTTTCCCAAACCAGCAGAGGCTTGTGCAAGGAGAGGTCACTGGAGTCCCTGCGTCCAGGTGGCATGACGGGGCACAGCGCATACACATAAACATGGACACACGGTGGAGAGGCTTGTGTTGACTTTGCGC
# B4: 167 bp ADRES (dsDNA)
# DNA 1: CTGCCTCCAGTCCTGAACTTTCTCTGCTGGGATGAGCAGAGTTCACGCTCGGCTGAACTCGTGACTGTGTCAACAGGGGGCATGAAGATCAGCACCAGGCAAAGGTGAGCGGAGTGCACAAGAATGAGGCAGAGACCTTTGGGACAAAGAGTTCCCCACCCGTGGGG
# DNA 2: CCCCACGGGTGGGGAACTCTTTGTCCCAAAGGTCTCTGCCTCATTCTTGTGCACTCCGCTCACCTTTGCCTGGTGCTGATCTTCATGCCCCCTGTTGACACAGTCACGAGTTCAGCCGAGCGTGAACTCTGCTCATCCCAGCAGAGAAAGTTCAGGACTGGAGGCAG
# B5: 176 bp ADRES (dsDNA)
# DNA 1: GGGCTCCATCGGCCTCTTCAGGTTATTGCTATGTTCAACTCGTGTGACCTTCCTCCCTGTTTTCAAGGTTCTGATAACAAACTTCTAGGACAGCCTGGTGACCTTTGGCTCAGCTTCCTCTTTAAACTCCGGTGGCTTTTGCTTCATTGCCTAGTTGTTACCCAGCAGTAAAGATC
# DNA 2: GATCTTTACTGCTGGGTAACAACTAGGCAATGAAGCAAAAGCCACCGGAGTTTAAAGAGGAAGCTGAGCCAAAGGTCACCAGGCTGTCCTAGAAGTTTGTTATCAGAACCTTGAAAACAGGGAGGAAGGTCACACGAGTTGAACATAGCAATAACCTGAAGAGGCCGATGGAGCCC
# What was measured:
# CXR/RXR heterodimer [1] = biological target: T5, CXR/RXR heterodimer (Gallus gallus, UniProt A0A8V1AGS4;P28701 A0A8V1AGS4:1-375,P28701:1-467); experiment: EMSA; binding virtually eliminated; conditions: tags: TNT T7 Quick Coupled; pSG5; label: 32P
# T5 sequence (chain, as listed by the source): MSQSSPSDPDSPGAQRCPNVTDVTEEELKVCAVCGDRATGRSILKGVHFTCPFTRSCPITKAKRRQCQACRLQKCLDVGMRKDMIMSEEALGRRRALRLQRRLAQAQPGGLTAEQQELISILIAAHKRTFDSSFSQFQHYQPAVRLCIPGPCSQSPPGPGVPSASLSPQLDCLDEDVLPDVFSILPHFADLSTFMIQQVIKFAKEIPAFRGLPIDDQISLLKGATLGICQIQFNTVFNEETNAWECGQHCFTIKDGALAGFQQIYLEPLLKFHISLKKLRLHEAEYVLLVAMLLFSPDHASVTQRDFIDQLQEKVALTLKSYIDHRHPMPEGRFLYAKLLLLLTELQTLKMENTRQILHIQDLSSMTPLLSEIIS
# Experimental: (§1) Radiolabelled ADRES wild type (lanes 1-5) and mutant. (lanes 6-7) sequences were incubated With in vitro transcribed/translated CXR (lanes 3-7), chicken RXR (lanes 2 and 4-7) and anti-RXR antibody (Lane 5 and 7), as indicated. Arrows depict the unbound probe, the shifted CXR-RXR-probe complex, and the supershifted CXR-RXR-probe-anti-RXR antibody complex;
# (§2) Chicken CXR and RXR proteins were expressed using the TNT T7 Quick Coupled Translation System (Promega) according to the manufacturers protocol. Probes were labeled by Klenow reaction in the presence of radiolabeled [α-³²P]ATP and purified over a Biospin 6 chromatography column. A volume of labeled oligonucleotide corresponding to 100,000 cpm was used for each reaction in 10 mM Tris-HCL (8.0)/40 mM KCl/0.05% Nonidet P40′/6% glycerol (vol./vol.)/1 mM DTT containing 0.2 μg of poly(dI-dC) and 2.5 μl in-vitro synthesized proteins as described previously (2, 7). To test for supershifts, 0.5 μl monoclonal anti-mouse-RXR rabbit antibody (kindly provided by P. Chambon, Université Louis Pasteur, Illkirch, France) were added to the reaction mix. This antibody has been previously tested for interactions with chicken RXR in Western blots (data not shown). The reaction mix was incubated for 20 min at room temperature and electrophoresed on a 6% polyacrylamide gel in 0.5× Tris/borate/EDTA buffer followed by autoradiography.
# [2] = biological target: T1, human 9-cis retinoic acid receptor RXRα; experiment: electrophoretic mobility shift, hA240 probe; no complex with single receptors (FIG. 19B)
# Excerpt: (§3) FIG. 19 depicts the results of an electrophoretic mobility shift assay, assaying the ability of human PXR and human CAR to bind to the hA174 and hA240 elements. Binding of these nuclear receptors happens in a heterodimeric state with the human 9-cis retinoic acid receptor RXRα. From expression plasmids encoding human RXRα, […] or CAR, receptor protein was made in vitro using the TNT reticulocyte lysate coupled transcription/translation system (Promega Corp.).
# FIG. 19B: Instead of the hA174 fragment, wild-type or DR4-mutant hA240 fragment was radiolabeled and used as probe. Lanes 1-4: Wildtype hA240 was incubated with no receptor (mock transcription/translation) or with RXRα, PXR or CAR alone. No complex is observed using single receptors. Lanes 5 and 7: Wild-type hA240 was incubated with RXRα and PXR or RXRα and CAR, upon which complex formation between radiolabeled probe and protein is observed. Lanes 6 and 8: Same conditions as in lanes 5 and 7, but instead of wild-type probe, radiolabeled hA240DR4(2) mutant was used. No complex is formed.
# PXR = biological target: T2, PXR; experiment: EMSA; PXR alone; conditions: tags: TNT reticulocyte lysate; label: radiolabel
# Excerpt: as §3
# (§4) Lanes 1-4: Wildtype hA174 was incubated with no receptor (mock transcription/translation) or with RXRα, PXR or CAR alone. No complex is observed using single receptors. Lanes 5 and 7: Wild-type hA174 was incubated with RXRα and PXR or RXRα and CAR, upon which complex formation between radiolabeled probe and protein is observed. Lanes 6 and 8: Same conditions as in lanes 5 and 7, but instead of wild-type hA174, a radiolabeled probe was used where the half-site 2 was mutated. No complex is formed anymore.
# CAR = biological target: T3, CAR; experiment: EMSA; CAR alone; conditions: tags: TNT reticulocyte lysate; label: radiolabel
# Excerpt: as §3, §4
# CAR/RXRalpha heterodimer = CAR/RXRalpha heterodimer (Homo sapiens, UniProt Q14994;P19793 Q14994:1-352,P19793:1-462); experiment: EMSA; conditions: tags: TNT reticulocyte lysate; label: radiolabel
# Excerpt: as §3, §4
# PXR/RXRalpha heterodimer = PXR/RXRalpha heterodimer (Homo sapiens, UniProt O75469;P19793 O75469:1-434,P19793:1-462); experiment: EMSA; conditions: tags: TNT reticulocyte lysate; label: radiolabel
# Excerpt: as §3, §4
# RXRalpha = RXRalpha (Homo sapiens, UniProt P19793 P19793:1-462); experiment: EMSA; RXRalpha alone; conditions: tags: TNT reticulocyte lysate; label: radiolabel
# Excerpt: as §3, §4
# CXR/RXR heterodimer [3] = biological target: T5, CXR/RXR heterodimer; experiment: EMSA; supershifted by anti-RXR; conditions: tags: TNT T7 Quick Coupled; pSG5; label: 32P
# Experimental: as §1, with “mutant” for “mutant.”, “with” for “With”, “(lane” for “(Lane”
# as §2
# RXR [4] = biological target: T4, RXR; experiment: EMSA; RXR alone; conditions: tags: TNT T7 Quick Coupled; pSG5; label: 32P
# Experimental: as §1, with “mutant” for “mutant.”, “with” for “With”, “(lane” for “(Lane”
# as §2
# RXR [5] = biological target: T4, RXR; experiment: EMSA; RXR alone; conditions: tags: TNT T7 Quick Coupled; pSG5; label: 32P; remark: listed apart in the source
# Experimental: as §1, §2
# CXR/RXR heterodimer [6] = biological target: T5, CXR/RXR heterodimer; experiment: EMSA; supershifted by anti-RXR; 40 mM KCl, pH 8.0, poly(dI-dC), room temperature; conditions: tags: TNT T7 Quick Coupled; pSG5; label: 32P
# Experimental: as §1, §2
binder,measurement,setting,value
B1,binding result,CXR/RXR heterodimer [1],no binding
B2,binding result,[2],binds
B3,binding result,PXR,no binding
same,binding result,CAR,no binding
same,binding result,CAR/RXRalpha heterodimer,binds
same,binding result,PXR/RXRalpha heterodimer,binds
same,binding result,RXRalpha,no binding
B4,binding result,CXR/RXR heterodimer [3],binds
same,binding result,RXR [4],no binding
B5,binding result,RXR [5],no binding
same,binding result,CXR/RXR heterodimer [6],binds
